# Tested on: All antibodies according to the invention, which were tested (Example 4)
# recombinant catalytic domain of human MMP19, sequence (chain, as listed by the source): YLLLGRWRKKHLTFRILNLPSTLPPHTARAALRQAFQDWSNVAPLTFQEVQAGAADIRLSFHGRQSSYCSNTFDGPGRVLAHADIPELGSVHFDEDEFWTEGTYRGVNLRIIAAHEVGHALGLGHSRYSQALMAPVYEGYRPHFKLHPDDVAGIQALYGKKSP
# recombinant catalytic domain of human MMP8, sequence (chain, as listed by the source): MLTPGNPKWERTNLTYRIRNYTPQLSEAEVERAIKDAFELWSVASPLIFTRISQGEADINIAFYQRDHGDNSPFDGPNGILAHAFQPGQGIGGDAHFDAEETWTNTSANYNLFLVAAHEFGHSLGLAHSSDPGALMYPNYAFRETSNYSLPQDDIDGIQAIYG
# recombinant catalytic domain of human MMP3, sequence (chain, as listed by the source): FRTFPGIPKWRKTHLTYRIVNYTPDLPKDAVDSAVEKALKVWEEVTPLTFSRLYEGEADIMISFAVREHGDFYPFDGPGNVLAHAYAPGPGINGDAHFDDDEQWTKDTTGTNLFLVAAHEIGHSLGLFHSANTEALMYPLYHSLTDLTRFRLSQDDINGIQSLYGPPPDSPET
# recombinant catalytic domain of human MMP2, sequence (chain, as listed by the source): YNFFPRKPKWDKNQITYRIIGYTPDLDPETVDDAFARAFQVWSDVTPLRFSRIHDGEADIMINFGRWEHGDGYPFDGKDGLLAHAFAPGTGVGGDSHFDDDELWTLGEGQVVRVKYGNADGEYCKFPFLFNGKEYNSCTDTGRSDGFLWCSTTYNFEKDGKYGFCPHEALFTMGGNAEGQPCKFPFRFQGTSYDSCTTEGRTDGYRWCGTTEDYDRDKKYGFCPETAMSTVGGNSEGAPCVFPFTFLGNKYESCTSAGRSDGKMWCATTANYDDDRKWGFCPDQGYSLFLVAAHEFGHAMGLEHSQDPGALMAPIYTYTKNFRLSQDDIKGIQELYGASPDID
row,Substance,"cleavage of fluorogenic peptide OmniMMP RED by MMP catalytic domain, antibody at 100 nM"
1,recombinant catalytic domain of human MMP2,had no significant effect on the catalytic activity of the eight other human MMPs tested
2,recombinant catalytic domain of human MMP3,had no significant effect on the catalytic activity of the eight other human MMPs tested
3,recombinant catalytic domain of human MMP8,had no significant effect on the catalytic activity of the eight other human MMPs tested
4,recombinant catalytic domain of human MMP13,had no significant effect on the catalytic activity of the eight other human MMPs tested
5,recombinant catalytic domain of human MMP19,had no significant effect on the catalytic activity of the eight other human MMPs tested

# Source: patent US20170233495
